Read-outs that look alike come from different tables or passages of the source.
Tests used:
[1] = biological target: T1, Cynomolgus macaques CD200R1 isoform a on CHOK1 cells (CHOK1/cynoCD200R1a) (Cynomolgus macaques); experiment: flow cytometry, CHOK1/cynoCD200R1a cells; table beside the curves
T1 chain: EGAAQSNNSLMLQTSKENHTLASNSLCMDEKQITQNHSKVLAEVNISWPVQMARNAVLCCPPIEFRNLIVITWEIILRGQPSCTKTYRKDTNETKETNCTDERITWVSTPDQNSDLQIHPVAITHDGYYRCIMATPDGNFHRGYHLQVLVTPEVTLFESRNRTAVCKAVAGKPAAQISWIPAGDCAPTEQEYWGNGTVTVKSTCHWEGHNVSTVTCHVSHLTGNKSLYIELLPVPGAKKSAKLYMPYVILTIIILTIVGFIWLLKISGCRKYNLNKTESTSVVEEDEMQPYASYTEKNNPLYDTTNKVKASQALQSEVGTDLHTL
Method: (§1) This example is intended to investigate the in vitro binding activity of human anti-CD200R1 monoclonal antibodies to human/Cynomolgus macaques CD200R1a expressed on the surface of cells. The anti-CD200R1 antibodies were produced as described in Example 3.4 and the binding experiments at the cell level were performed using CHOK1/hCD200R1a and CHOK1-cynoCD200R1a.
(§2) Briefly, CHOK1/hCD200R1a cells and CHOK1-cynoCD200R1a cells were digested, and collected, and then were resuspended in PBS containing 2% BSA, respectively. The cell density was adjusted to 1×10⁶ cells/mL. The cells were seeded in a 96-well V-bottom plate (Corning, #3894) at 100 μL/well, followed by the addition of test antibodies and reference antibodies in a series diluted concentration, each at 100 μL/well. The cells were incubated away from light at 4° C. for 1 h. Thereafter, the cells in each well were rinsed twice with 100 μL of pre-cooled PBS containing 2% BSA, and centrifuged at 500 g at 4° C. for 5 min, and then the supernatant was discarded. […] Finally, the cells in each well were resuspended in 200 μL of pre-cooled PBS containing 2% BSA, and the fluorescence signal values were read using a BD CantoII flow cytometer.

[2] = biological target: T2, human CD200R1 isoform a on CHOK1 cells (CHOK1/hCD200R1a) (human, UniProt Q8TD46 25-348); experiment: flow cytometry, CHOK1/hCD200R1a cells; table beside the curves
T2 construct: also called CHOK1/CD200R1a
T2 sequence: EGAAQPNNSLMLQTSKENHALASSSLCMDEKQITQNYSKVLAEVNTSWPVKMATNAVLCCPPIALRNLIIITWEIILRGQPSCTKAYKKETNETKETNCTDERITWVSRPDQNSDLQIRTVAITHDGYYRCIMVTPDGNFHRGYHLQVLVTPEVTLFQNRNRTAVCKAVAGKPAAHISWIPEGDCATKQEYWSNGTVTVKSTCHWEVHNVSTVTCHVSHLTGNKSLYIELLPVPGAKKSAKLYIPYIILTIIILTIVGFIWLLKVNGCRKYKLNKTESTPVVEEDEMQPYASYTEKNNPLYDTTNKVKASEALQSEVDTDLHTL
Method: as §1, §2

[3] = biological target: T2, human CD200R1 isoform a on CHOK1 cells …; experiment: flow cytometry blocking assay: biotin-labelled human CD200 binding to CHOK1/hCD200R1a cells; y axis Inhibition %
Method: (§3) In brief, CHOK1/hCD200R1a cells were digested and resuspended in 2% BSA in PBS. […] The cells were placed at 4° C. and incubated for 1 hour in the dark. […] 100 μL/well of pre-cooled PBS containing 2% BSA was added to rinse the cells twice, centrifugation was performed at 500 g, 4° C. for 5 minutes, and the supernatant was discarded. Fluorescent secondary antibody (PE Streptavidin, BD, Cat #: 554061, 1:200) was added at 100 μL/well, and incubation was performed at 4° C. for 30 minutes in the dark. The cells were washed twice with 200 μL/well of pre-cooled PBS, and were centrifuged at 500 g, 4° C. for 5 minutes, and the supernatant was discarded. Finally, 200 μL/well of pre-cooled PBS was used to resuspend the cells, and the fluorescence signal values were read using ACEA Novocyte 3000 flow cytometer. IC50 values were calculated.

[4] = biological target: T2, human CD200R1 isoform a on CHOK1 cells …; experiment: flow cytometry, CHOK1/hCD200R1a cells; table beside the curves, head without unit, x axis Log [Ab] (nM)
Method: as §1, §2

[5] = biological target: T2, human CD200R1 isoform a on CHOK1 cells …; experiment: flow cytometry, CHOK1/hCD200R1a cells (FITC-Mean); table beside the curves
Method: as §1
Briefly, CHOK1/hCD200R1a cells and CHOK1-cynoCD200R1a cells were digested, and collected, and then were resuspended in PBS containing 2% BSA, respectively. The cell density was adjusted to 1×10⁶ cells/mL. The cells were seeded in a 96-well V-bottom plate (Corning, #3894) at 100 μL/well, followed by the addition of test antibodies and reference antibodies in a series diluted concentration, each at 100 μL/well. The cells were incubated away from light at 4° C. for 1 h. Thereafter, the cells in each well were rinsed twice with 100 μL of pre-cooled PBS containing 2% BSA, and centrifuged at 500 g at 4° C. for 5 min, and then the supernatant was discarded. 100 μL of fluorescent secondary antibody (Alexa Fluor 488-conjugated AffiniPure Goat Anti-Human IgG, Fcγ Fragment Specific, Jackson, #109-545-098, diluted in a 1:1000 ratio) was added in each well, and the plate was incubated away from light at 4° C. for 1 h. The cells in each well were rinsed twice with 100 μL of pre-cooled PBS containing 2% BSA, and centrifuged at 500 g at 4° C. for 5 min, and then the supernatant was discarded. Finally, the cells in each well were resuspended in 200 μL of pre-cooled PBS containing 2% BSA, and the fluorescence signal values were read using a BD CantoII flow cytometer.

[6] = biological target: T1, Cynomolgus macaques CD200R1 isoform a …; experiment: flow cytometry, CHOK1/cynoCD200R1a cells (APC-A Mean); table beside the curves
[7] = biological target: T2, human CD200R1 isoform a on CHOK1 cells …; experiment: flow cytometry blocking assay: antibody titrated against biotin-labelled human CD200 binding to CHOK1/hCD200R1a cells; head prints EC50 without unit, x axis Log [Ab] (nM), y axis Inhibition %
Method: as §3

[8] = biological target: T3, CD200R1a on PathHunter Jurkat CD200R1a signaling cells (Eurofins DiscoverX, 93-1136C19) (human, UniProt Q8TD46 25-348); experiment: cell-based or functional assay
T3 sequence: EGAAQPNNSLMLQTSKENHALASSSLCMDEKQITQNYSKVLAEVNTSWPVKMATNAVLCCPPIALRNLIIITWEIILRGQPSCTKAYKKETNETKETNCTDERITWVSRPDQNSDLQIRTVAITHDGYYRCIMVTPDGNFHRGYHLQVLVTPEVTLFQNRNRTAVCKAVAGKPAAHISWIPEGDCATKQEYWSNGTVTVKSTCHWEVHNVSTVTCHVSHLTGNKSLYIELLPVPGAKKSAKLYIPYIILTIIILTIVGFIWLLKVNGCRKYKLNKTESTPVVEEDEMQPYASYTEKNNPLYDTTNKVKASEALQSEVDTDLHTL

[9] = biological target: T3, CD200R1a on PathHunter Jurkat CD200R1a …; experiment: cell-based or functional assay; remark: listed apart in the source

Binder | MFI(Max) [1] | MFI(Max) [2] | Blocking(Max) [3] [%] | EC50 [4] [nM] | MFI(Max) [5] | EC50 [6] [nM] | MFI (MAX) [6] | EC50 [7] [nM] | IC50 of the inhibition of CD200-induced PathHunter Jurkat CD200R1a luminescence (CHOK1/hCD200 cells as CD200 source) [8] [nM] | IC50 of the inhibition of CD200-induced PathHunter Jurkat CD200R1a luminescence (CHOK1/hCD200 cells as CD200 source) [9] [nM]
PR002906 (antibody, V domains shown, also called recombinant IgG1 antibody of huDX182) VH: QVQLQESGPGLVKPSETLSLTCTVSGYTITSGYDWSWIRQPPGKGLEWIGYINYGGSTNYKPSLGSRVTISVDTSKNQFSLKLSSVTAADTAVYYCARYNEYKSYIYDWYFDFWGQGTLVTVSS VL: DIQMTQSPSSLSASVGDRVTITCKASKNIRSYLAWYQQKPGKAPKLLIYSGSTLHSGVPSRFSGSGSGTDFTLTISSLQPEDFATYYCQQHHEYPLTFGQGTKVEIKR | 6440 | 131000 | 96.6 | 15.2 | 13900 | 16.4 | 23900 | 0.463 | – | –
PR007221 (antibody, human IgG1, kappa, PTM variant of PR006895 (human IgG1)) heavy: not shown light: DIQLTQSPPSLSASVGDRVTITCRASQSISSYLNWFQQKAGKAPKLLISATSNLQSGVPSRFSGSGSGTDFTLTISSLQPEDLATYYCQQTLSSPYTFGQGTKVEIKRTVAAPSVFIFPPSDEQLKSGTASVVCLLNNFYPREAKVQWKVDNALQSGNSQESVTEQDSKDSTYSLSSTLTLSKADYEKHKVYACEVTHQGLSSPVTKSFNRGEC | – | – | – | – | – | – | – | – | 1.27 | –
PR005509 (antibody, human IgG1, kappa, L234A L235A, V domains shown) VH: QVQLVESGGGVVQPGRSLRLSCAASGFTFSSYGFHWVRQAPGKGLEWLGLIWSDGSNKYYADSVKGRFTISRDNSKNTLYLQMNSLRAEDTAVYYCARDRIVGAGFDYWGQGTLVTVSS VL: not shown | 19900 | 101000 | – | 6.57 | – | – | – | – | – | –
PR007973 (antibody, human IgG1, kappa, V domains shown, PTM variant of PR006839 (human IgG1)) VH: QVQLVESGGGVVQPGRSLRLSCAASGFTFSSYGFHWVRQAPGKGLEWLGIIWSDASNKYYADSVKGRFTISRDNSKNTLYLQMNSLRAEDTAVYYCARDRIVGEGFDYWGQGTLVTVSS VL: not shown | – | – | 100 | – | 19200 | 3.78 | 62500 | 0.36 | – | 0.706

Reference: patent US20250313626A1 (HARBOUR BIOMED SHANGHAI, published 2025)
